# Measurements taken from the DeepSol protein solubility set.
# Test: soluble on expression in E. coli; label from the status in PepcDB or PDB records
row,Sequence,soluble on expression in E. coli
1,MNHDIDIKKVRLNCFRQSKVPGEFMLQMRIPGGIVDAKYLSQIQEIAETWGNGTFHMGMRQTFNIPGIKYENIQAVNKFIENYLQEVEVDRCNCDMKVDENGYPTIGARNVMACIGNSHCIKANVDTKDMANKIEKLVFPSHYHIKVSVAGCPNDCAKGHFQDFGVIGQARMEYHEERCIGCGACVRACEHHATRVLSLNDKGLVDKDPCCCVGCGECVLACPASAWTRKPEKFYRIVIGGRTGKQTPRMGKTFINFATEEVVLGIFANWQKFSAWALDYKPEYLHGGHLIDRAGYHKFKEIILDGVELNPEALVADNIFWAETEYRSNFNVKPIKMHKTIESNRPLRLEHHHHHH,not soluble
2,MNHSIPTLRTERLTLRPLAMADFPAYRDFMASPRSTGVGGPYDLPSTWGVFCHDLANWHFFGHGALMIDLGETGECIGQIGINHGPLFPEKELGWLLYEGHEGRGYAAEAAVALRDWAFETLNLPTLVSYVSPQNRKSAAVAERIGGTLDPLAPRSDPEDLVYRYHQVKTA,soluble
3,MNHTADNCIFCKIIDGQILCSKVYEDEHVLAFLDISQVTKGHTLVIPKVHKQDIFALTPEIASHIFSVVPKIANAIKAEFNPVGFNLLNNNGEKAGQTVFHFHLHLIPRYGENDGFGAVWKSHQNEYTMENLQNIASTIANSVK,not soluble
4,MNIDTREITLEPADNARLLSLCGPFDDNIKQLERRLGIEINRRDNHFKLTGRPICVTAAADILRSLYVDTAPMRGQIQDIEPEQIHLAIKEARVLEQSAESVPEYGKAVNIKTKRGVIKPRTPNQAQYIANILDHDITFGVGPAGTGKTYLAVAAAVDALERQEIRRILLTRPAVEAGEKLGFLPGDLSQKVDPYLRPLYDALFEMLGFEKVEKLIERNVIEVAPLAYMRGRTLNDAFIILDESQNTTIEQMKMFLTRIGFNSKAVITGDVTQIDLPRNTKSGLRHAIEVLADVEEISFNFFHSEDVVRHPVVARIVNAYEAWEEAEQKRKAALAAERKREEQEQK,soluble
5,MNIDTRIKFRHLVCFLEVARQGSLARASDALAISQPALSKSLKELETLLATTLFVRSKSGAALTDAGVAFMRFAGPSVQALRDGVSSLRSGEHETVTARLGVLSTAESLLVPEVVKRLHTRHPALIVSVMTGPSAYLLSQLRVGELDLVVGRMTDSPQIQGLTFEHLYHESMTLVVRNDHPLLAAPLKRESLEQFPLVLPLAGTTIRKFADSLFVQCGIQMPRQRLETLSLTLSRRYVQCSNAIWIAPLDAVLLELKGGTLVELDMGIREPGGSVGLCSNPALPLTRAAQWCVDELRTVGAAYREGQYA,not soluble
6,MNIEQQLYDVVKQLIEQRYPNDWGGAAAIRVEDGTIYTSVAPDVINASTELCMETGAILEAHKFQKKVTHSICLARENEHSELKVLSPCGVCQERLFYWGPEVQCAITNAKQDIIFKPLKELQPYHWTEAYHDEMVKEWSTR,soluble
7,MNIFSKPDPKELERANKRELRKTNRDLESDRRQMDRREKELEQEIKKLAAKGHNDAARHLAKQLVQLRNQKTKSIGMSARISGVQAQNSHMQSMAKMGSAMGTTVKTMKAMNAQMPLEKVAANMREFQMAQEKMGLTEEMMNDTLDSILDAPGDADEQDAIVNQVLDEIGIEMNSKLANVPALPTKVSSTAPADFDDLEAQLARLRS,not soluble
8,MNIIDELEWRGAVNQQTDEEGLRKLVEEKKISLYCGVDPTGDSMHIGHLIPFMMMKRFQLAGHHPVILIGGATGTIGDPSGRQSERQLQTLEVVQHNVDALTAQMKKLFDFGGNSEVKMVNNYDWTHEINIIEFLRDYGKNFSINSMLAKDIVASRLDTGISFTEFTYQILQAMDFHHLYTKEDVQLQIGGSDQWGNITSGLDLIRKLEGHEAKVFGLTIPLLLKSDGTKFGKSAGGAVWLDPEKTTPFEFYQFWVNTDDRDVVKYLKYFTFLTKERIDELAVKVETEPHKREAQKVLAEEMTKFVHGEEALLQAVKITAALFSGDIKSLTADEIEQGFKEMPTFQSSKETKNIVEWLVDLGIEPSRRQAREDINNGAISMNGEKVTDVGTDVTVENSFDGRFIIIRKGKKNYSLVKLG,soluble
9,MNIIIATTKSWNIKNAQKFKKENESKYNTTIITNKDELTFEKVKLINPEYILFPHWSWIIPKEIFENFTCVVFHMTDLPFGRGGSPLQNLIERGIKKTKISAIKVDGGIDTGDIFFKRDLDLYGTAEEIFMRASKIIFNDMIPELLTKRPVPQKQEGEATVFQRRKPEQSEISPDFDLEKIYDYIRMLDGEGYPRAFIKYGKYRLEFSRASMKNGKIIADVEIIEGDENE,soluble
10,MNIKEKIVVLRNTEDGSFLKSFKNKKDVLAYNVELTDSIQLASFLPEEAYNIQKEKIDNLAETLGCDVVVIEASYDLKFVDGEDVPELTKEQKVKSMVNGMFEQVFGGE,not soluble
11,MNILKIRHGQGHIAKIEAQSFVDGEGVRCSLYVSGCPFACENCYNKVAQNFKYGEPFHEDTLEEIMEYCAPNYISGLSILGGEPFCNVDITLKCAQTFRKRFGNTKSLWVWTGFLFEYLERDSAERKTLLELIDVLVDGPFINHLYRPNLPYKGSMNQRVIDVQASLQKRRVCEYIKSLEHHHHHH,not soluble
12,MNILLLDGGKAFGHSHGGLNRTLHKKAKEVLTALGHNVQETVIDAGYDVEAEIEKFVWMDAVIWQMPGWWMHEPWTVKKYIDEVLTAGHGKLYQSDGRHSVNPTEGYGTGGLLQGKKHMISLTWNAPIEAFTREGDFFEGKGVDVLYMHFHKANEFLGMTRLPTFLCNDVVKNPQVEKYLADYQAHLEKVFG,not soluble
13,MNILQNENLIIESSSFGAELTKIFSKKYDKNILWDGNKKYWGRQSPILFPIVGKLFDNETIIEENLYSMTQHGFARDMDFEIVDKGDTFVTYKLTDNESTLKKYPYSFELIINYTLNDNSIEVEWIVKNTDSKDIFFSIGGHPAFNLPFYKQNDFSKHYLEFKSKNDVEKINLNGSFTDDIIPIGKLKNLQLNPEVFKNDALIYTNIDEVSICNNDGSKYVTISMEDFPLVGIWTPYYSETNSTAPFLCIEPWYGLADSINSNKIYKDKKFINKLSKGKVFTASYNINIHLEHHHHHH,soluble
14,MNIMLTGATGHLGTHITNQAIANHIDHFHIGVRNVEKVPDDWRGKVSVRQLDYFNQESMVEAFKGMDTVVFIPSIIHPSFKRIPEVENLVYAAKQSGVAHIIFIGYYADQHNNPFHMSPYFGYASRLLSTSGIDYTYVRMAMYMDPLKPYLPELMNMHKLIYPAGDGRINYITRNDIARGVIAIIKNPDTWGKRYLLSGYSYDMKELAAILSEASGTEIKYEPVSLETFAEMYDEPKGFGALLASMYHAGARGLLDQESNDFKQLVNDQPQTLQSFLQENILEHHHHHH,soluble
15,MNIQWFPGHMAKTRRILAENLKMVDVVVELLDARIPASSKNPEIDGIVKNKPKIVVLNKADLADEKISNEWSKWYNSQGYATIFIDSIKGTGIKQLKDQMRDIMKDRIERDRQRGRIFRPIRTMIVGIPNVGKSSLINKIAGKKSAVTGDRPGVTRNKQWINVNNEIQLMDTPGILWPKFEDKTVGINLAVTGAIKDEIIDTVELASILLEHLSKTYPENIKKRYKLESLQDKKGYELLEEAGKKRGCIISGGEVDLTRIAAIVLDEFRGGKIGRITLERPGDAVQELVAD,not soluble
16,MNIRNARPEDLMNMQHCNLLCLPENYQMKYYFYHGLSWPQLSYIAEDENGKIVGYVLAKMEEDPDDVPHGHITSLAVKRSHRRLGLAQKLMDQASRAMIENFNAKYVSLHVRKSNRAALHLYSNTLNFQISEVEPKYYADGEDAYAMKRDLTQMADEPASGPGSSCLLSGDLGPVSFHPLPSGLLAAAEAAPGAEGKGQAHGSGGLGEQSGEQRQRAFELRRGLS,soluble
17,MNKFLGMYNTNTSNGGFVMSEKIYLKIDQQRYVKKPRVTIGDVMTVYCSDKDMIEKIGHITLAEFTLGKYDRKVFDALDVVGIIQKEYPDADIECLGECDFVVEYKKPEKEGTVH,not soluble
18,MNKILLVDDDRELTSLLKELLEMEGFNVIVAHDGEQALDLLDDSIDLLLLDVMMPKKNGIDTLKALRQTHQTPVIMLTARGSELDRVLGLELGADDYLPKPFNDRELVARIRAILRRSHWSEQQQNNDNGSPTLEVDALVLNPGRQEASFDGQTLELTGTEFTLLYLLAQHLGQVVSREHLSQEVLGKRLTPFDRAIDMHISNLRRKLPDRKDGHPWFKTLRGRGYLMVSAS,soluble
19,MNKKLMTLAVFLFSSAASAASTDATVNLVNANGTGQKIGNITITETEYGLLFTPHLSSLPAGIHGFHIHENGSCDAGMKDGKPVAALAAGGHLDPQHTNKHLGPYNPEGHLGDLPALYVNQAGNADYPVLAPRLKSISQVKGHAIMIHTGGDNHEDHPNPLGGGGARIACGVIK,not soluble
20,MNKKYPKINYIGNKEKIASWICDQLPSDVDTVADVFSGGCSFAYEAKKRGYRVITNDILAINYQIALALIENNHETLNDDDVAMIFSGSPHAGFMSQRYSEKFYFHDECQQLDLYRKNIGKLNNQYKRALAFTLMRRAMIRKMPYSRFTIPWEKVKQLRDEEYSYAKYGRRRAYHNESFQSHFLQNLDDYNQAVFNNGWRHHAFNQDIFDLLPNIQADAVYLDPPYTGTMNNYFGFYGLLDSYITSSIPKPFANHFMDKKQAVELFKRVINHLKPFKYWLLSYNNASYPNRDELEEMLGKNGRNVQILETPHVYKVTGKEKKQSHKEILFLVENT,not soluble
21,MNKRYNTLNDYYRRIFGEKTFKVPIDAGFDCPNRDGTVAHGGCTFCTVSGSGDAIVAPEAPIRDQFYKEVDFMHRKWPDVKKYLVYFQNFTNTHDKVEVIRERYEQAINEPGVIGINIGTRPDCLPDVTILYLAELSQRLHVTLELGLQTTYEKTSKLINRAHSYQLYVETVKRVRDLAPKVEIVSHLINGLPGESHEMMLENVRRCVTDNDIDGIKLHLLHLMTNTRMQRDYHEGRLHLLSMEEYVNIICDQLEIIPKNIVIHRLTGDAPRDMLIGPMWSLNKWEVLNSIDREMERRNAYQGCKLEVNI,not soluble
22,MNKTILALDTATEACSVALLHNGNITTLDELSPRNHTQRILPMVDELLSQANISIKQVDVLAFGRGPGSFTGVRVGVSVAQGLALGANLPVVAISNLLAMAQAAYQQLRANNVIALIDARMNEVYFAQYQRIGEHWHTIVEEQVCSPETAIAQMKINDNSVVVGTGWAAYPQFYVAKLPLSVSDISLPSAKDMLELALKAVENGELQTALDIEPIYLRNEVTWQKLPHKRLEHHHHHH,soluble
23,MNKVSVVLPTYNCGTYVGVAVESVLQQTYSNYELIIVNDGSTDETDQALAPYLCNNGHIRYIKQGNKGHAGARNTGIRAATGDVIAFIDSDDKWLPEKLGEQVQAMEEDPEVGLVHCNVYGFGENQEVQVRGPLLTQEQLQGYSGYIFDNLYFRKIIITTTTVMIRKSCIDDVGMFDENMTRYGSEDRELFLRILWKYKARYVNKPLAMYRNRSDSEGQNYERMIKGQEYVYEKITSLYGLPQSSKRAVMSKMYQEWAREFYAKGRFADGLTNQVKAIRANPIDMNAYFALKRYARFLFSRATLEHHHHHH,not soluble
24,MNLCRECYGIIGEGVVAEKCEACCNAFDRVEEFAEEIVKKMSEYEFETFNVGSRVWGSLKALQEYLSLKGIEYEIKQRFNTKLARAIEEKTGSKRTLNPDITVLFDLETFTFELQIRPVFIYGRYLKRVRNISQTRWLCGYCNGEGCEVCNFTGKKYVSSVEELIAMPAVRLFKARDAKLHGAGREDVDARMLGTGRPFVLEVIEPRKRFVDLKELEEAINSQKWVAVRDLEYTDAEKVREVKTERHRKTYRAKVVFEEKVERERLIEALESLKGEIRQRTPMRVSHRRADRVRVRRLYDARLIHHTGRVAVVEFEAEAGLYIKELVSGDNGRTRPSLAEKVGVNARVDRLDVIAVSLEHHHHHH,soluble
